Assay results taken from patent publication US20220332804A1 (CSL INNOVATION, published 2022).
Substitutions are numbered along the chain they refer to.

How the values were obtained:
Assay in all cases: SPR, KD relative to WT C2;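 note: biacore SPR at 37 °C, anti-C2 mAbs captured via immobilised goat anti-human IgG, C2 alanine or serine surface mutants as analytes, 1:1 model fitted, double-referenced sensograms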
[1] = target: T1, human C2 K415A (human, UniProt P06681 21-752)
T1 sequence: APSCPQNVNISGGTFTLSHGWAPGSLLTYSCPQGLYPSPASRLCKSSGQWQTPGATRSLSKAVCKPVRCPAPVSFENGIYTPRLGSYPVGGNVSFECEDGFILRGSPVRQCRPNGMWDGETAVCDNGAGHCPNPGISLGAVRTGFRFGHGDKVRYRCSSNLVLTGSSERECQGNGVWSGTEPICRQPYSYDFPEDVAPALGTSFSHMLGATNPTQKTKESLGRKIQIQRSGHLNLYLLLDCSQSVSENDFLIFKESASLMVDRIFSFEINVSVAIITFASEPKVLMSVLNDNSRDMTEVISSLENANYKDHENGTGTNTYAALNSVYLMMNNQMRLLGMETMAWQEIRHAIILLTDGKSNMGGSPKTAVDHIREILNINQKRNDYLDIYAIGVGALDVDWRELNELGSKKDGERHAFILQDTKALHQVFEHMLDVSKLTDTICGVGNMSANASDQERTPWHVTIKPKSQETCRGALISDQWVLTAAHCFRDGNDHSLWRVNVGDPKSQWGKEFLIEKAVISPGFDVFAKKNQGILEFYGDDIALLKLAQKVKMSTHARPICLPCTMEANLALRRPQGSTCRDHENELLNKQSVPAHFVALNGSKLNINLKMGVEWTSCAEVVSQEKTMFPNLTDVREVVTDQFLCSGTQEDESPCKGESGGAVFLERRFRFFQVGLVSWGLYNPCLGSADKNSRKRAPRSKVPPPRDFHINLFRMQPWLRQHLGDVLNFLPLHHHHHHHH

[2] = target: T2, human C2 D282A (human, UniProt P06681 21-752)
T2 sequence: T1 sequence with D262A, A395K

[3] = target: T3, human C2 R493A (human, UniProt P06681 21-752)
T3 sequence: T1 sequence with A395K, R473A

B1: RF16-226 (antibody, human IgG4 S228P, lambda)
heavy: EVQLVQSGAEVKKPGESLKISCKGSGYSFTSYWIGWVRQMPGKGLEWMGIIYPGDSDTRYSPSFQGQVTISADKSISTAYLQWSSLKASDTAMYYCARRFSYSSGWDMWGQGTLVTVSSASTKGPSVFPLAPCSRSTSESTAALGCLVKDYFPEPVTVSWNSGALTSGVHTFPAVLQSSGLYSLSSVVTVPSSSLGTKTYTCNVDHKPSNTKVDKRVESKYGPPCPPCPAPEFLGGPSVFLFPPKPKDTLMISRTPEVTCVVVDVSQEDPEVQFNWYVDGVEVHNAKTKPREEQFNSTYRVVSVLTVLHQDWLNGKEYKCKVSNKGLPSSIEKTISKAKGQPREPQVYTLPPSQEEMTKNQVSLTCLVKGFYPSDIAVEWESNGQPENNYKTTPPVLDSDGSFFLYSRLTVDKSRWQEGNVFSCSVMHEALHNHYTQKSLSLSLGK
light: SYELTQPPSVSVSPGQTARITCSGDALTSKYVAWYQQKSGLAPLLVIYEDTRRPSGIPAKFSGSSSGSVATLTISGAHGDDEADYYCYSTDASGHQRVFGGGTKLTVLSQPKAAPSVTLFPPSSEELQANKATLVCLISDFYPGAVTVAWKADGSPVKAGVETTKPSKQSNNKYAASSYLSLTPEQWKSHRSYSCQVTHEGSTVEKTVAPTECS
notes: pH-dependent anti-C2 antibody from a phage display library; also called WT
B1 gave a Fold diff [1] of 1 fold, a Fold diff [2] of 1 fold and a Fold diff [3] of 2 fold.
